The results in this text go back to paper PMC10415141.

For one data set, the target named is MCM8;MCM9 680 (Homo sapiens;Homo sapiens, UniProt Q9UJA3;Q9NXL9 1-840;1-680, |). In words: S1 nuclease protection.
Another data set addresses MCM8 WB;MCM9 680 WB (Homo sapiens;Homo sapiens, UniProt Q9UJA3;Q9NXL9 1-840;1-680, E519Q|E415Q). Briefly: S1 nuclease protection.

Chain of MCM8 WB;MCM9 680 WB (Q9UJA3 whole entry E519Q, chain 1 of 2): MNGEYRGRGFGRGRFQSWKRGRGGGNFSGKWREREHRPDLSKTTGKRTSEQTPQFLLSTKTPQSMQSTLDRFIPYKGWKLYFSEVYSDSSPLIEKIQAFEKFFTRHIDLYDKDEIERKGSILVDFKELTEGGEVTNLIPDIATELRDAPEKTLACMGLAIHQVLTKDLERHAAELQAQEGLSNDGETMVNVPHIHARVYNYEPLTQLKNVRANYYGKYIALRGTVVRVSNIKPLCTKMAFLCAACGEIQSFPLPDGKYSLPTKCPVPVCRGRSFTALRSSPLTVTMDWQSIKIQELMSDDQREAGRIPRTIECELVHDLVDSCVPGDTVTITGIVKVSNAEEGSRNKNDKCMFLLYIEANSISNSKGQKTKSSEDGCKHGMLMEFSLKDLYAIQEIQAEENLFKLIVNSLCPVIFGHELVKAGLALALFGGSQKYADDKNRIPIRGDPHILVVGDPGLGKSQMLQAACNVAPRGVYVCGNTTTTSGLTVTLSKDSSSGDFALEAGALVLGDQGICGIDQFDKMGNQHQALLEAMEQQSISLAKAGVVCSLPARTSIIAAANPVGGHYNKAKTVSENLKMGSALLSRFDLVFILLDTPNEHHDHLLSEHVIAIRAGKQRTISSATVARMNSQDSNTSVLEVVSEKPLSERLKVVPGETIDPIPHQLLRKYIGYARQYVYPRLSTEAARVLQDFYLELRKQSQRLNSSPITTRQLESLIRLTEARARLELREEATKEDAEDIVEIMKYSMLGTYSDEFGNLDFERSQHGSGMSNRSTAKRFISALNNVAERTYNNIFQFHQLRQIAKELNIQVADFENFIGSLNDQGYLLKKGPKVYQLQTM
Chain of MCM8 WB;MCM9 680 WB (Q9NXL9 1-680 E415Q, chain 2 of 2): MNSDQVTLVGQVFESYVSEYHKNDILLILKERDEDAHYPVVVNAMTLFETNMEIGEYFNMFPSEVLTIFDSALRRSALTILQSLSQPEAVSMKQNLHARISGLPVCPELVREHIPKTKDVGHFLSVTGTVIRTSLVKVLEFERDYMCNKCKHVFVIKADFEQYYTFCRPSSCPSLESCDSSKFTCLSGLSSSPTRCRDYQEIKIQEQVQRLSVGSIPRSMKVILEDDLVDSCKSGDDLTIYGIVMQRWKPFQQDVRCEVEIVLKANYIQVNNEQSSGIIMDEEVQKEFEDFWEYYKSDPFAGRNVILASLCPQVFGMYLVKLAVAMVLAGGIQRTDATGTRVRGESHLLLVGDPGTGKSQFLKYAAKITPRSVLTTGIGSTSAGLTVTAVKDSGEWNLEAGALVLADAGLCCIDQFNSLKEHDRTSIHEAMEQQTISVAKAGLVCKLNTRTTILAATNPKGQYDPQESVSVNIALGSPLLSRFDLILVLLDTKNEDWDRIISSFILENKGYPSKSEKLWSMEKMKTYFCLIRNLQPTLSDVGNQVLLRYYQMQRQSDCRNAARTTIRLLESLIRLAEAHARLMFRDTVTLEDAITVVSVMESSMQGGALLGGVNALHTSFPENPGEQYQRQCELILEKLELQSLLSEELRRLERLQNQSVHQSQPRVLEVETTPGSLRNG
Chain of MCM8;MCM9 680 (Q9UJA3 whole entry, chain 1 of 2): as the sequence (Q9UJA3 whole entry E519Q, chain 1 of 2) above, with Q519E counted along it
Chain of MCM8;MCM9 680 (Q9NXL9 1-680, chain 2 of 2): as the sequence (Q9NXL9 1-680 E415Q, chain 2 of 2) above, with Q415E counted along it

B1: 3' long arm fork (DNA228/15Cy3) (mixed)
DNA 1: TTTTTTTTTTGCCGGTCGGGGTGGGTGGGAAGCGTAGGGAGAGGTG
DNA 2: CACCTCTCCCTACGCTTCCCACCCACCCCGACCGGCATCTGCTATGGTACGCTGAGCGAGAGTAGC
Take B1: the binding result with MCM8;MCM9 680 and with MCM8 WB;MCM9 680 WB was “binds” each time.
